Laboratory results published in article PMC9408373.
Several values for one entry are separate records, joined by “and”; a condition that tells them apart may be missing. Equal entries are not always repeated.

Tests used:
[1] = target: the CDC42 variants (2xSW and 8xSW), mGppNHp-bound; assay: fluorescence polarisation; 1 µM mant-GppNHp-bound CDC42 in the cuvette, IQGAP protein titrated; quadratic ligand binding equation
[2] = target: CDC42 IH variants (four different single residue mutations and a quadruple mutation of the insert helix); assay: as above
[3] = target: human CDC42 (aa 1-178) 8xSW (human) (UniProt P60953); assay: as above
[4] = target: CDC42 IH variants (four different single residue mutations and a quadruple mutation of the insert helix); assay: fluorescence polarisation; 1 µM mant-GDP-bound CDC42 in the cuvette, IQGAP protein titrated; quadratic ligand binding equation

Sequence of human IQGAP1 C794 (aa 863-1657) (P46940 863-1657): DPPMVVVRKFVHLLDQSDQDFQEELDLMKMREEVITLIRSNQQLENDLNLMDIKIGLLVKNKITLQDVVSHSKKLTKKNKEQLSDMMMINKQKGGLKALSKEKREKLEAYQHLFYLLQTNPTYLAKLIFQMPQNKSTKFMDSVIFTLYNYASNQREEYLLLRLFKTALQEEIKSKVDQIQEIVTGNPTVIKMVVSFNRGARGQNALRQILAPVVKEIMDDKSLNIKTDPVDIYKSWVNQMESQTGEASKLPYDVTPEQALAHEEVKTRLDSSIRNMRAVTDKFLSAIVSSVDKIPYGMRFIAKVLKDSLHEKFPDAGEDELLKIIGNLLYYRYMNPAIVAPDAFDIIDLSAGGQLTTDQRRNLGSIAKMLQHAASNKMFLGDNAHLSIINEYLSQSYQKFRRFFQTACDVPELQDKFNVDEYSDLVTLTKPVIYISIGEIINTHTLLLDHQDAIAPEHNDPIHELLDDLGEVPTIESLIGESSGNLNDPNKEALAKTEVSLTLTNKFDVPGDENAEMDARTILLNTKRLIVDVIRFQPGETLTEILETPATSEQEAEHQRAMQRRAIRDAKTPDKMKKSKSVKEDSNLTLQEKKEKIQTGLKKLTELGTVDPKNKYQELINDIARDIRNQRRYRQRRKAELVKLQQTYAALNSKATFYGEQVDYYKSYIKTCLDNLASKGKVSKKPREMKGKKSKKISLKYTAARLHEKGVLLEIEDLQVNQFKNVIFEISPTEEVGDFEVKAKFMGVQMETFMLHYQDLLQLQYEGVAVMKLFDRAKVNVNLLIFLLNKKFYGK
Sequence of human IQGAP1 GRD1 (aa 962-1345) (P46940 962-1345): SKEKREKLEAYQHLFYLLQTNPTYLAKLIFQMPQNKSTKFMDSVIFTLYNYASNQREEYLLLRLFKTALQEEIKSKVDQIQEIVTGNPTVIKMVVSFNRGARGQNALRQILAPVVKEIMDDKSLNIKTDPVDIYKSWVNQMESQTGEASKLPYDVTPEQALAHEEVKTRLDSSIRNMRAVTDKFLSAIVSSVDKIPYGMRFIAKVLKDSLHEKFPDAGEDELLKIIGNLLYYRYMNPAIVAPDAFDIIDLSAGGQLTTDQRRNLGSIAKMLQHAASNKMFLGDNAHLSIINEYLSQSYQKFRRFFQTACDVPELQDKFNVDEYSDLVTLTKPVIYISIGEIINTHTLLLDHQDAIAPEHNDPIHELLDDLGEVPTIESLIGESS
Sequence of human CDC42 (aa 1-178) 8xSW (human) (P60953 1-178): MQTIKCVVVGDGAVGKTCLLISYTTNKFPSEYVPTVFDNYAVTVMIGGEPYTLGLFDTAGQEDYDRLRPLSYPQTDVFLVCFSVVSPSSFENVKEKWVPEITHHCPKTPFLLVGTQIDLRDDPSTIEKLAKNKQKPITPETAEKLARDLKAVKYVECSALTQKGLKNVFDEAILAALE

| fold reduction in binding affinity against CDC42 WT [1] | fold lower affinity than for CDC42 WT [2] [fold] | fold reduction in binding affinity against CDC42 WT [3] [fold] | fold lower affinity than for CDC42 WT [4] [fold] | Substance |
| --- | --- | --- | --- | --- |
| 2 fold and 3 fold | – | – | – | human IQGAP1 GRD1 (aa 962-1345) (from UniProt P46940 962-1345) (domain or fragment) |
| – | 20 | 86 | 3 | human IQGAP1 C794 (aa 863-1657) (from UniProt P46940 863-1657) (domain or fragment) |
